Assay results taken from patent publication US20140005119A1, “COMPOSITIONS AND METHODS FOR INHIBITING THE ACTIVITY OF P110a MUTANT PROTEINS” (Case Western Reserve University, priority 2012, published 2014).
Bridges are numbered along the chain shown (N, C = ends). Where no end group is shown, it is not given here. [ ]: non-standard residue; d: D form. S5 = C=CCCC[C@](C)(N)C(=O)O

Columns and labels:
[1] = target: T1, IRS1-p110α E545K interaction in DLD1 cells (Homo sapiens, UniProt P35568); experiment: Co-IP after peptide added to culture medium of p110α E545K 3×FLAG KI DLD1 cells; type: cell-based; set-up: dose or concentration left out as unconfirmed; conditions: peptide added to cell culture medium for 16 hr
T1 construct: endogenous in cells; host or cells: DLD1 p110α E545K 3×FLAG knock-in cells (rAAV gene targeting of the endogenous allele)
T1 sequence (P35568 1-1242): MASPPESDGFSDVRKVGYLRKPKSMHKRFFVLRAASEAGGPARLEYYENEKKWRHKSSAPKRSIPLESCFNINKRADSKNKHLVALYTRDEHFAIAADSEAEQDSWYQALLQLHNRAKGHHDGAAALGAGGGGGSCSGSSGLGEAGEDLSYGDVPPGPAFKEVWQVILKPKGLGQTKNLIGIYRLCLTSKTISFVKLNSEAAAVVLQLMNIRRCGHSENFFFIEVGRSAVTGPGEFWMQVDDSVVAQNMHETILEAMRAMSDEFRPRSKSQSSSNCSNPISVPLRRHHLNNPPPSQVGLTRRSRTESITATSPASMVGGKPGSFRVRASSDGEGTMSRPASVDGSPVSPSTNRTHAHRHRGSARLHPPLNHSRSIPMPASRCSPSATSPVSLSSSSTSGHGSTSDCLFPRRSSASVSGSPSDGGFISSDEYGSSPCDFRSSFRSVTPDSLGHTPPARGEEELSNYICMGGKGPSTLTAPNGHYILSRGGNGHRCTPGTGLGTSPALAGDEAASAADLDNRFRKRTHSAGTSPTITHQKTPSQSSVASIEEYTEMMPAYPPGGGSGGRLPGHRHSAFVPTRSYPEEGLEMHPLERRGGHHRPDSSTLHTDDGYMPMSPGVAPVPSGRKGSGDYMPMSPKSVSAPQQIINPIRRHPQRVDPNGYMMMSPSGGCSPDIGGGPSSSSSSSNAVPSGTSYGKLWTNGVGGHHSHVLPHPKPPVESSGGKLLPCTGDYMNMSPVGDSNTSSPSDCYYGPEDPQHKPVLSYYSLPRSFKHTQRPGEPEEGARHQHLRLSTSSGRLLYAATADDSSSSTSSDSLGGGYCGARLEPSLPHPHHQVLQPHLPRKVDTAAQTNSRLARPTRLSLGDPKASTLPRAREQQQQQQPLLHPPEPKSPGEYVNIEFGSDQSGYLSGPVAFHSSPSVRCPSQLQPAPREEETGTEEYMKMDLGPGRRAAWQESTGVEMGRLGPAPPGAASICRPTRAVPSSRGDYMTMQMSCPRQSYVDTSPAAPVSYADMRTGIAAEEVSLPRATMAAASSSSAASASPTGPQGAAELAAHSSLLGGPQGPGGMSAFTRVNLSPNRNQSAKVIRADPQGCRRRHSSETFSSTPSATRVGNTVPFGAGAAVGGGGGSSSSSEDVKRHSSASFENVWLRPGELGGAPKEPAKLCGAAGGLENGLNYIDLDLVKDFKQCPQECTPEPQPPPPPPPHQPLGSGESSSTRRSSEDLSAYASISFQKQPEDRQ
Protocol: FIG. 4(A-F) illustrate: (A) Schematic diagram of linear and stapled WT and mutant peptides derived from p110α (SEQ ID NOs: 5, 6, 7 and 8). (B) Immunoblots of cell lysates immunoprecipitated with beads conjugated with anti-FLAG antibodies and then blotted with the indicated antibodies. Linear or stapled WT and mutant peptide were added into culture medium of the p110α E545K 3×FLAG KI cells for 16 hr. (C) Immunoblots of cell lysates immunoprecipitated with anti-p110α antibodies and then blotted with the indicated antibodies. Vaco481 CRC cells were treated with the stapled mutant peptides at the indicated concentration. (D) Immunoblots of cell lysates blotted with the indicated antibodies. The indicated cell lines were treated with the stapled mutant peptide. (E) Immunoblots of cell lysates blotted with the indicated antibodies. The indicated cancer cell lines were treated or untreated with stapled WT or mutant peptide at […] for 2 hr. (F) Immunoblots of cell lysates were blotted with the indicated antibodies. The indicated cancer cell lines were treated with or without […] of stapled mutant peptide for 2 hr.
(§1) For Co-immunoprecipitation (Co-IP), cells were harvested, washed with PBS, and then lysed in IP buffer (50 mMTris [pH 7.4], 150 mMNaCl, 5 mMEDTA [pH 8.0], 0.5% NP40, 1 mM PMSF, complete Protease Inhibitor Cocktail tablet [Roche]; supplemented with phosphatase inhibitors [1 mM Na3VO4, 20 mM NaF, 0.1 mM b-glycerophosphate, 20 mM sodium pyrophosphate] when necessary). For immunoblotting (IB) of phospho-specific proteins, unless stated otherwise, cells were lysed in urea buffer (100 mM NaH2PO4, 10 mM Tris-HCl, 8 M Urea, 1 mM Na3VO4, 20 mM NaF, 0.1 mM β-glycerophosphate, 20 mM sodium pyrophosphate, supplemented with complete Protease Inhibitor Cocktail tablet [Roche], pH 8.0). Lysates were then cleared by centrifugation (14,000 rpm, 10 min) and protein concentration in supernatants was determined with a BCA protein assay kit (Pierce, Rockford, Ill.). Equal amounts of total protein were used for IP or IB.

[2] = target: T2, interaction between p110α E545K and IRS1 (Homo sapiens, UniProt P35568); experiment: Peptide competition assay in cell lysates (anti-FLAG immunoprecipitation, anti-IRS1 blot); type: binding; conditions: peptide added into cell lysates of p110α E545K 3×FLAG KI cells
T2 construct: In KI DLD1 cells, IRS1 was co-immunoprecipitated with p110α E545K but not the WT p110α; endogenous in cells; host or cells: DLD1 p110α E545K 3×FLAG knock-in cells (rAAV gene targeting of the endogenous allele)
T2 sequence (P35568 1-1242): T1 sequence (P35568 1-1242)
Protocol: FIGS. 3(A-M) illustrate: (A, B) Mapping peptides (P3, SEQ ID NO: 1; P4 SEQ ID NO: 2; P5, SEQ ID NO: 3; P6, SEQ ID NO: 4) derived from mutant p110α that inhibit interaction between IRS1 and p110α E545K. The indicated peptides were added into cell lysates made from the p110α E545K 3×FLAG KI cells. Cell lysates were immunoprecipitated with beads conjugated with anti-FLAG antibodies and then blotted with anti-IRS1 antibodies. (C) Immunoblots of cell lysates made from the p110α E545K 3×FLAG KI cells. Cell lysates were immunoprecipitated with beads conjugated with anti-FLAG antibodies and then blotted with the indicated antibodies. (D) Immunoblots of cell lysate of Myc-tagged IRS1 plasmid, which co-transfected an ABD domain deletion construct of the FLAG-tagged p110α E545K mutant (ΔABD), incubated with the indicated amount of stapled p110α mutant peptides, and then immunoprecipitated with anti-FLAG antibodies and blotted with the indicated antibodies. (J, K) Immunoblot and graph of purified recombinant p110α E545K mutant proteins mixed with the indicated components and quantified using an in vitro lipid kinase assay. (L, M) Immunoblots of the indicated cell lines serum-starved, stimulated with 1 μg/ml insulin for 30 min, and then treated with or without the indicated peptides. Cell lysates were blotted with the indicated antibodies. All error bars show mean±SEM. *p<0.05, **p<0.001, t test.
as §1
For in vitro peptide competition assay, the p110α mutant-FLAG-tagged cells were grown to 90% confluency, serum-starved overnight, and lysed as described previously. Peptides were then added to the cell lysates, incubated for 30 min at 4° C. and followed by immunoprecipitation assay.

inhibition of the interaction between p110α E545K and IRS1 [2]	inhibition of the interaction between p110α E545K and IRS1 ([2]; listed as stapled polypeptide substantially homologous to the C-terminal α-helical motif o)	Substance	disruption of IRS1-p110α E545K interaction in DLD1 cells [1]
did not inhibit		H2N-SEITEQEKD^549-FLW-S^553-HRHYC-COOH (SEITEQEK[S5]FLW[S5]HRHYC; staple 9-13; not fully specified (N-terminus, C-terminus); printed as H2N-SEITEQEKD549-FLW-S553-HRHYC-COOH; listed as Homo sapiens) [stapled WT peptide, stapled wild-type p110α counterpart of the stapled mutant peptide, used as control, reference compound]	neither the linear mutant peptide nor the stapled WT peptide affected the interaction
almost completely disrupted	disrupted	H2N-SEITKQEK-D^549-FLW-S^553-HRHYC-COOH [stapled mutant peptide]	effectively disrupted
